Assay results from paper PMC10634658.

Experiments:
[1] = molecular target: PAC-BLUF (BLUF domain of OaPAC, residues 1-102) (Oscillatoria acuminata); assay: SEC; Superdex 200 Increase 10/300, PBS, room temperature, 50 μM, 100 μl injected; dark state and light state (column irradiated with a Xe lamp); mass calibrated with a gel filtration standard
[2] = molecular target: PAC-BLUF (BLUF domain of OaPAC, residues 1-102) (Oscillatoria acuminata); assay: transient grating (diffusion coefficient); 80 μM protein, 23 °C, excitation at 462 nm; diffusion coefficients of reactant (dark) and photoproduct (light) compared with those expected for monomer and dimer
[3] = molecular target: BLUF-α3 (PAC-BLUF domain with the α3-helix of OaPAC, residues 1-126) (Oscillatoria acuminata); assay: SEC; Superdex 200 Increase 10/300, PBS, room temperature, 50 μM, 100 μl injected; dark state and light state (column irradiated with a Xe lamp); mass calibrated with a gel filtration standard
[4] = molecular target: BLUF-α3 (PAC-BLUF domain with the α3-helix of OaPAC, residues 1-126) (Oscillatoria acuminata); assay: transient grating (diffusion coefficient); 80 μM protein, 23 °C, excitation at 462 nm; diffusion coefficients of reactant (dark) and photoproduct (light) compared with those expected for monomer and dimer
[5] = molecular target: full-length OaPAC (photoactivated adenylate cyclase from Oscillatoria acuminata) (Oscillatoria acuminata); assay: SEC; Superdex 200 Increase 10/300, PBS, room temperature, 50 μM, 100 μl injected; dark state and light state (column irradiated with a Xe lamp); mass calibrated with a gel filtration standard
[6] = molecular target: full-length OaPAC (photoactivated adenylate cyclase from Oscillatoria acuminata) (Oscillatoria acuminata); assay: SAXS; Photon Factory BL-15A2, flowing sample, dark state and light state (450 nm diode laser); molecular mass from the Guinier plot (80 kDa)
[7] = molecular target: full-length OaPAC (photoactivated adenylate cyclase from Oscillatoria acuminata) (Oscillatoria acuminata); assay: transient grating (diffusion coefficient); 80 μM protein, 23 °C, excitation at 462 nm; diffusion coefficients of reactant (dark) and photoproduct (light) compared with those expected for monomer and dimer

## PAC-BLUF (BLUF domain of OaPAC, residues 1-102) (domain or fragment)
[1]
  stoichiometry N: 2
[2]
  stoichiometry N: 2

## BLUF-α3 (PAC-BLUF domain with the α3-helix of OaPAC, residues 1-126) (domain or fragment)
[3]
  stoichiometry N: 2
[4]
  stoichiometry N: 2

## full-length OaPAC (photoactivated adenylate cyclase from Oscillatoria acuminata) (enzyme)
[5]
  stoichiometry N: 2
[6]
  stoichiometry N: 2
[7]
  stoichiometry N: 2
